Drawing on paper PMC5753033, “WH2 and proline‐rich domains of WASP‐family proteins collaborate to accelerate actin filament elongation” (The EMBO Journal, 2017), this text covers Kd for 1 molecule.

The test addresses Atto540Q-labeled actin monomers (Acanthamoeba castellanii), Latrunculin B-stabilized (Acanthamoeba castellanii, Atto540Q-NHS at reactive lysine residues). The test can be described thus: FRET or BRET; 7.5 nM Alexa488-labeled WAVE1 variant titrated with LatB-stabilized Atto540Q-actin; donor quenching; room temperature; 20 mM HEPES pH 7.0, 100 mM KCl, 1.5 mM MgCl2, 1 mM EGTA, 1 mM ATP; single site binding curve. The conditions noted are these: both partners purified.

B1: Alexa488-labeled WAVE1 P_CA (WH2-delete construct) (domain or fragment)
chain: RPHEPPPPPPMHGAGDAKPIPTSISSATGLIENRPQSPATGRTPVFVSPTPPPPPPPLPSALSTSSLRASMTSTPPPPVPPPPPPPATALQAPAVPPPPAPLQIAPGVLHPAPPPIAPPLVQPSPPVARAAPVSETVPVHPLPQGEVQGLPPPPPPPPLPPPGIRPSSPVTVTALAHPPSGLHPTPSTAPGPHVPLMPPSPPSQVIPASEPKRHPSCLPVISDEEQREQEAKHERIENDVATILSRRIAVEYSDSEDDSEFDEVDWLE
modifications: Alexa488-maleimide on Cys490
Broadly, the Kd is a measure of binding affinity in units of concentration. The low end stands for a tighter complex, the high end for a looser complex. B1: the Kd was found to be 425 nM.
